In patent US20250145720A1:

Columns and labels:
[1] = molecular target: mouse FcRn, biotinylated extracellular domain (FcRnECDHis-B2M-BIO) (mouse) (UniProt Q61559); assay: ELISA on coated mouse FcRn at pH 6.0, apparent affinity
[2] = molecular target: human complement component C1q (human) (UniProt P02745); assay: FACS, C1q on antibody-opsonized Daudi cells, average
[3] = molecular target: human complement component C1q (human) (UniProt P02745); assay: FACS, C1q on antibody-opsonized Daudi cells, Exp. 3
[4] = molecular target: human complement component C1q (human) (UniProt P02745); assay: FACS, C1q on antibody-opsonized Daudi cells, ranking table
[5] = molecular target: human complement component C1q (human) (UniProt P02745); assay: FACS, C1q on antibody-opsonized Daudi cells, Exp. 1
[6] = molecular target: human complement component C1q (human) (UniProt P02745); assay: cell-based or functional assay
[7] = molecular target: human complement component C1q (human) (UniProt P02745); assay: FACS, C1q on antibody-opsonized Daudi cells, Exp. 4
[8] = molecular target: human complement component C1q (human) (UniProt P02745); assay: FACS, C1q on antibody-opsonized Raji cells, Exp. 3
[9] = molecular target: human complement component C1q (human) (UniProt P02745); assay: C1q ELISA, antibody coated in dilution series, 3% pooled human serum
[10] = molecular target: human complement component C1q (human) (UniProt P02745); assay: FACS, C1q on antibody-opsonized Raji cells, average
[11] = molecular target: human complement component C1q (human) (UniProt P02745); assay: FACS, C1q on antibody-opsonized Daudi cells, Exp. 2
[12] = molecular target: human complement component C1q (human) (UniProt P02745); assay: FACS, C1q on antibody-opsonized Raji cells, Exp. 2
[13] = molecular target: human complement component C1q (human) (UniProt P02745); assay: FACS, C1q on antibody-opsonized Raji cells, Exp. 1
[14] = molecular target: human complement component C1q (human) (UniProt P02745); assay: FACS, C1q on antibody-opsonized Daudi cells, Exp. 6
[15] = molecular target: human complement component C1q (human) (UniProt P02745); assay: FACS, C1q on antibody-opsonized Daudi cells, Exp. 10
[16] = molecular target: human complement component C1q (human) (UniProt P02745); assay: FACS, C1q on antibody-opsonized Daudi cells, Exp. 11
[17] = molecular target: human complement component C1q (human) (UniProt P02745); assay: FACS, C1q on antibody-opsonized Daudi cells, Exp. 8
[18] = molecular target: human complement component C1q (human) (UniProt P02745); assay: FACS, C1q on antibody-opsonized Daudi cells, Exp. 7
[19] = molecular target: human complement component C1q (human) (UniProt P02745); assay: FACS, C1q on antibody-opsonized Daudi cells, Exp. 9
[20] = molecular target: human complement component C1q (human) (UniProt P02745); assay: FACS, C1q on antibody-opsonized Daudi cells, ranking table; no reliable fit
[21] = molecular target: human complement component C1q (human) (UniProt P02745); assay: FACS, C1q on antibody-opsonized Daudi cells, Exp. 5

mouse FcRn, biotinylated extracellular domain (FcRnECDHis-B2M-BIO) (mouse), sequence (Q61559 22-297): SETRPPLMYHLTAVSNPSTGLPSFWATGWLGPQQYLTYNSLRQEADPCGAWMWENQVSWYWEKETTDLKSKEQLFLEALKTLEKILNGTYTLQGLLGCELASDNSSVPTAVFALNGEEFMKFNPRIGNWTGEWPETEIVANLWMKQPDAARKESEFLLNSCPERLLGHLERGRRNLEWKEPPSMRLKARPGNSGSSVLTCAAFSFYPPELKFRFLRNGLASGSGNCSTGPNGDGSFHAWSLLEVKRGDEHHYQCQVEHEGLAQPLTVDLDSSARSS
human complement component C1q (human), sequence (P02745 23-245 limits assumed, chain 1 of 3): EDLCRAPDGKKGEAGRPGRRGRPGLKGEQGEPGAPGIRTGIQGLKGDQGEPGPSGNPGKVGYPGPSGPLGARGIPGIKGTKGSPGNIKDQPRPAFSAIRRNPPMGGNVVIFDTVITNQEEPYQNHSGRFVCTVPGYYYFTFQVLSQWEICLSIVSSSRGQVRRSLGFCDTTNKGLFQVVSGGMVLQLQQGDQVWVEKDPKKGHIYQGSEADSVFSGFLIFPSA
human complement component C1q (human), sequence (P02746 28-253 limits assumed, chain 2 of 3, further chain): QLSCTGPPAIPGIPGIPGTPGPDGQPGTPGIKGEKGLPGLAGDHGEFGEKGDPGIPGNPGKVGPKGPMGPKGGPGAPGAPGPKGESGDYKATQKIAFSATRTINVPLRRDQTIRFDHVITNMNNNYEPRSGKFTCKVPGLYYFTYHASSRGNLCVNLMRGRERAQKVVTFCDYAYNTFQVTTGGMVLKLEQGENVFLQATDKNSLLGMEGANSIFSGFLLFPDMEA
human complement component C1q (human), sequence (P02747 29-245 limits assumed, chain 3 of 3, further chain): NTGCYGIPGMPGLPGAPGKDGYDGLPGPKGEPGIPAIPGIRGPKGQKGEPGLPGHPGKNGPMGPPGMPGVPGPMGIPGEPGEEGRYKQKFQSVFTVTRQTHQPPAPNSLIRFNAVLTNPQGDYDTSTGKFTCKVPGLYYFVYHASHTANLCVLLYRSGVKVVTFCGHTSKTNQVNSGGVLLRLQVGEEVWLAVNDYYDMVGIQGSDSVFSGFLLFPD

Row | Substance | EC50 [1] | Kd [2] | Kd [4] | CH50 (C1q concentration giving 50% lysis), CDC on Raji cells in C1q-depleted serum [6] | EC50 of CDC on Daudi cells, 20% normal human serum [6] | EC50 of CDC on Raji cells, 20% normal human serum [6] | also measured
1 | IgG1-005-P247G (antibody) | 0.28 mg/L | – | – | – | – | – | –
2 | IgG1-005-E345N (antibody) | 0.11 mg/L | – | – | – | – | – | –
3 | IgG1-7D8-I253A (antibody) | – | 0.0215 µM | 0.0215 µM | 11.2 µg/mL | 0.79 mg/L | 5.55 mg/L | Kd [3]: 0.0167 µM; Kd [5]: 0.033 µM; Kd [7]: 0.0157 µM; Kd [8]: 0.0201 µM; EC50 [9]: 2.56 mg/L; Kd [10]: 0.0186 µM; Kd [11]: 0.0204 µM; Kd [12]: 0.0257 µM
4 | IgG1-7D8-N434A (antibody) | – | 0.0426 µM | 0.0426 µM | 21.2 µg/mL | 1.77 mg/L | – | Kd [3]: 0.0283 µM; Kd [5]: 0.0367 µM; Kd [7]: 0.0487 µM; Kd [8]: 0.0352 µM; EC50 [9]: 2.12 mg/L; Kd [10]: 0.0449 µM; Kd [13]: 0.0359 µM; Kd [11]: 0.0478 µM; Kd [12]: 0.0467 µM
5 | IgG1-7D8-K439E + IgG1-7D8-S440K mix | – | – | – | 1.33 µg/mL | 0.48 mg/L | 1.58 mg/L | Kd [14]: 0.0036 µM
6 | IgG1-7D8 (HuMab-7D8, wild type) (antibody) | – | – | – | 0.49 µg/mL | 0.48 mg/L | 1.54 mg/L | Kd [15]: 0.0118 µM; Kd [5]: 0.0077 µM; Kd [8]: 0.0109 µM; EC50 [9]: 2.05 mg/L; Kd [13]: 0.0048 µM; Kd [16]: 0.0133 µM
7 | IgG1-7D8-H435R (antibody) | – | – | – | 0.24 µg/mL | 0.28 mg/L | 0.61 mg/L | Kd [3]: 0.0026 µM; Kd [7]: 0.003 µM; EC50 [9]: 1.24 mg/L; Kd [11]: 0.0087 µM
8 | IgG1-7D8-E382R (antibody) | – | 0.0023 µM | 0.0023 µM | 0.77 µg/mL | 0.76 mg/L | 2.96 mg/L | Kd [17]: 0.00113 µM; Kd [18]: 0.00118 µM
9 | IgG1-7D8-Q311A (antibody) | – | 0.0107 µM | 0.0107 µM | 0.63 µg/mL | 0.42 mg/L | 1.72 mg/L | Kd [5]: 0.0143 µM; Kd [8]: 0.0122 µM; Kd [13]: 0.0041 µM; Kd [11]: 0.013 µM; Kd [12]: 0.0101 µM
10 | IgG1-7D8-H435A (antibody) | – | – | – | 0.96 µg/mL | 0.81 mg/L | 2.22 mg/L | Kd [3]: 0.005 µM; Kd [5]: 0.0078 µM; Kd [7]: 0.0109 µM; EC50 [9]: 2.27 mg/L; Kd [10]: 0.0073 µM; Kd [13]: 0.0054 µM; Kd [11]: 0.0109 µM; Kd [12]: 0.0099 µM
11 | IgG1-005-E345Y (antibody) | 0.13 mg/L | – | – | – | – | – | –
12 | IgG1-005-S440K (antibody) | 0.11 mg/L | – | – | – | – | – | –
13 | IgG1-7D8-K322A (antibody) | – | – | – | > 30 µg/mL | > 30 mg/L | > 30 mg/L | –
14 | IgG1-005-E345R (antibody) | 0.09 mg/L | – | – | – | – | – | –
15 | IgG1-005-E430F (antibody) | 0.11 mg/L | – | – | – | – | – | –
16 | IgG1-005-K439E (antibody) | 0.31 mg/L | – | – | – | – | – | –
17 | IgG1-7D8-K439E (antibody) | – | 0.361 µM | 0.361 µM | > 30 µg/mL | 2.34 mg/L | 21.5 mg/L | Kd [14]: 0.418 µM; Kd [16]: 0.304 µM
18 | IgG1-005-E430G (antibody) | 0.13 mg/L | – | – | – | – | – | –
19 | IgG1-7D8-S440K (antibody) | – | 0.109 µM | 0.109 µM | > 30 µg/mL | 1.78 mg/L | 19.5 mg/L | Kd [14]: 0.17 µM; Kd [16]: 0.048 µM

Row | Substance | EC50 [1] | Kd [2] | Kd [4] | CH50 (C1q concentration giving 50% lysis), CDC on Raji cells in C1q-depleted serum [6] | EC50 of CDC on Daudi cells, 20% normal human serum [6] | EC50 of CDC on Raji cells, 20% normal human serum [6] | also measured
20 | IgG1-005-E345K (antibody) | 0.1 mg/L | – | – | – | – | – | –
21 | IgG1-7D8-I253D (antibody) | – | 0.157 µM | 0.157 µM | > 30 µg/mL | 3.33 mg/L | > 30 mg/L | Kd [5]: 0.146 µM; Kd [7]: 0.205 µM; Kd [8]: 0.0852 µM; EC50 [9]: 3.84 mg/L; Kd [13]: 0.07 µM; Kd [11]: 0.176 µM; Kd [12]: 0.172 µM
22 | IgG1-005-E430H (antibody) | 0.11 mg/L | – | – | – | – | – | –
23 | Ofatumumab (antibody) | – | 0.0072 µM | – | – | – | – | Kd [15]: 0.0128 µM; Kd [14]: 0.0054 µM; Kd [19]: 0.0125 µM; Kd [17]: 0.0027 µM
24 | IgG1-7D8-I253Y (antibody) | – | 0.0413 µM | 0.0413 µM | 16.1 µg/mL | 1.77 mg/L | 28.9 mg/L | Kd [3]: 0.0211 µM; Kd [5]: 0.0585 µM; Kd [7]: 0.0487 µM; Kd [8]: 0.0462 µM; EC50 [9]: 2.21 mg/L; Kd [10]: 0.0387 µM; Kd [13]: 0.0243 µM; Kd [11]: 0.037 µM; Kd [12]: 0.0456 µM
25 | IgG1-005 (HuMab 005, wild type) (antibody) | 0.14 mg/L | – | – | – | – | – | –
26 | IgG1-7D8-E345R (antibody) | – | 0.0017 µM | 0.0017 µM | 0.03 µg/mL | 0.04 mg/L | 0.16 mg/L | Kd [15]: 0.0027 µM; Kd [18]: 0.00017 µM
27 | IgG1-7D8-I253D/H433A (antibody) | – | 5.29 µM | – | > 30 µg/mL | 4.77 mg/L | > 30 mg/L | Kd [14]: 10.3 µM; Kd [20]: 5.29 µM; Kd [16]: 0.246 µM
28 | IgG1-005-S440Y (antibody) | 0.15 mg/L | – | – | – | – | – | –
29 | IgG1-005-E430T (antibody) | 0.15 mg/L | – | – | – | – | – | –
30 | IgG1-7D8-K439E/S440K (antibody) | – | 0.0026 µM | 0.0026 µM | 0.09 µg/mL | 0.33 mg/L | 1.34 mg/L | Kd [15]: 0.0029 µM; Kd [14]: 0.0046 µM; Kd [17]: 0.00101 µM; Kd [18]: 0.00163 µM
31 | IgG1-005-E345Q (antibody) | 0.12 mg/L | – | – | – | – | – | –
32 | IgG1-7D8-H310K (antibody) | – | 0.124 µM | 0.124 µM | > 30 µg/mL | 3.03 mg/L | 19.3 mg/L | Kd [21]: 0.0324 µM; Kd [16]: 0.216 µM
33 | IgG1-7D8-H433A (antibody) | – | 0.118 µM | 0.118 µM | > 30 µg/mL | 3.44 mg/L | 22.6 mg/L | Kd [3]: 0.0452 µM; Kd [5]: 0.168 µM; Kd [7]: 0.181 µM; Kd [8]: 0.084 µM; EC50 [9]: 3.33 mg/L; Kd [10]: 0.0979 µM; Kd [13]: 0.125 µM; Kd [11]: 0.0761 µM; Kd [12]: 0.085 µM
34 | IgG1-7D8-Y436D (antibody) | – | 0.468 µM | 0.468 µM | > 30 µg/mL | 1.88 mg/L | 16.6 mg/L | Kd [14]: 0.431 µM; Kd [16]: 0.504 µM
35 | IgG1-7D8-G385D (antibody) | – | 0.074 µM | 0.074 µM | 22.5 µg/mL | 2.12 mg/L | 17.4 mg/L | Kd [14]: 0.077 µM; Kd [16]: 0.071 µM
36 | IgG1-005-E430S (antibody) | 0.14 mg/L | – | – | – | – | – | –
37 | IgG1-7D8-Q438D (antibody) | – | 0.717 µM | 0.717 µM | > 30 µg/mL | 2.61 mg/L | 19.5 mg/L | Kd [21]: 0.767 µM; Kd [16]: 0.667 µM
